Test results reported in US20240417484A1, “ANTIGEN-BINDING POLYPEPTIDES AGAINST CD73” (UNIVERSITÄTSKLINIKUM HAMBURG-EPPENDORF, priority 2021, published 2024).

T1: soluble human CD73 (Homo sapiens, UniProt P21589)
T1 construct: The ectodomain of CD73 (aa 27-549) was expressed as a recombinant protein with a C-terminal His6× tag; His6 (C); made in house; host or cells: transiently transfected HEK cells
T1 sequence (P21589 27-549): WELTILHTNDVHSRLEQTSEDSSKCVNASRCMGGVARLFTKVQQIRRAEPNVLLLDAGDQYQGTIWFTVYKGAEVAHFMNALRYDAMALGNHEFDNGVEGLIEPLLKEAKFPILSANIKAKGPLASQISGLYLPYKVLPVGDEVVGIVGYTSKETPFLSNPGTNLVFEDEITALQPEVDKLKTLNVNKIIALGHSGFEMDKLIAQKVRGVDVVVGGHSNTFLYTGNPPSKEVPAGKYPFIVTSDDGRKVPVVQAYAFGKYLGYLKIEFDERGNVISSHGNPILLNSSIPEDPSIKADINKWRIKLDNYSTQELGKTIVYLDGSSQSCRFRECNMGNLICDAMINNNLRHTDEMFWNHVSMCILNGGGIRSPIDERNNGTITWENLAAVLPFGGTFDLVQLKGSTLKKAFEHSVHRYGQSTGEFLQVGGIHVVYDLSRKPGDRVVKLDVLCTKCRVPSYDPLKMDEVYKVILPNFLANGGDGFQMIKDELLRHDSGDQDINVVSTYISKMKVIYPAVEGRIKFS

T2: human CD73 (Homo sapiens, UniProt P21589)
T2 construct: expressed in transfected cells; stably transfected in method 5.1)
T2 sequence (P21589 27-549): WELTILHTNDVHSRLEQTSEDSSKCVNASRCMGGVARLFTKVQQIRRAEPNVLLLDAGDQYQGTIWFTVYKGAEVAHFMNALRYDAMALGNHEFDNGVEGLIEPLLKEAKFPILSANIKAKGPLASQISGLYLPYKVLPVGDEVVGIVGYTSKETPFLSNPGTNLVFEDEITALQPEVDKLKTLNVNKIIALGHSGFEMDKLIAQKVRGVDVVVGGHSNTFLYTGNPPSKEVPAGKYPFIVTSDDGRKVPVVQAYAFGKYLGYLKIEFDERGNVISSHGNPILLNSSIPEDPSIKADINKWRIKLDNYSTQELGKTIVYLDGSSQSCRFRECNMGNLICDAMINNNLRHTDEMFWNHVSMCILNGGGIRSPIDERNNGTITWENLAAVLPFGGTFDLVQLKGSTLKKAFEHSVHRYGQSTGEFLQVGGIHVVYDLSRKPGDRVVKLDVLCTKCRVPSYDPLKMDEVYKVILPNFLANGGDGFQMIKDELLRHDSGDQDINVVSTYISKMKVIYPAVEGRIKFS

T3: human CD73-transfected HEK cells (Homo sapiens, UniProt P21589)
T3 construct: expressed in transfected cells; stably transfected in method 5.1)
T3 sequence (P21589 27-549): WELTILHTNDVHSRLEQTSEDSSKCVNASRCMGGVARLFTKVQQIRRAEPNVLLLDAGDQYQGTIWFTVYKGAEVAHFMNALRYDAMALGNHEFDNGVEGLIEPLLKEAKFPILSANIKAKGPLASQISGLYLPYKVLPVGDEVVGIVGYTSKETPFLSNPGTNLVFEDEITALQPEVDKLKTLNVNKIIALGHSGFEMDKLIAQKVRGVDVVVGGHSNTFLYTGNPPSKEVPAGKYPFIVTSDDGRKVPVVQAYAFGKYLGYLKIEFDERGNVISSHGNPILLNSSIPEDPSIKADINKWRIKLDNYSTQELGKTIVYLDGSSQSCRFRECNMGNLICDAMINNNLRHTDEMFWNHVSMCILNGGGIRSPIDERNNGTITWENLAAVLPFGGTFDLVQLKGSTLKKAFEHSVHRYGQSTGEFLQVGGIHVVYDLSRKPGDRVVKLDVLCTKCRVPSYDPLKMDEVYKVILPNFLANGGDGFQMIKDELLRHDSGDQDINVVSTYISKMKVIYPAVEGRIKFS


Legend:
soluble human CD73 [1] = biological target: T1, soluble human CD73; experiment: Off-rates of soluble CD73 from immobilized Nb-rbIgG hcAb on Octet BLI; assay type: binding; settings: soluble human CD73 ectodomain 200 ng/μl as analyte; Nb-rbIgG hcAb immobilized on protein A biosensor
Experimental: The binding off-rate constants of bivalent hcAbs to human and mouse CD73 protein were determined by […] kinetic analysis on Octet RED96 (ForteBio). Immobilization of rabbit IgG hcAbs on the protein A-biosensor surface was done in HEK-6E cell supernatant, and regeneration of analytes was done with 100 mM Glycin pH=2.5. Recombinant mouse or human CD73 ectodomain was used as analytes and tested at a saturating dose of 200 ng/μl. Sensorgrams were fitted using least square regression in association than dissociation Model in Prism8 (Graphpad).

human CD73 = biological target: T2, human CD73; experiment: Flow cytometry binding of rabbit IgG hcAbs to human CD73-transfected HEK cells; settings: family representative clone; h = binds human CD73, m = binds mouse CD73
Experimental: HEK cells were co-transfected with expression vectors for green fluorescent protein (GFP) and human CD73, mouse CD73, and a control cell surface protein (CD39). 48 h after transfection, cells were incubated with HEK cell supernatants containing the indicated rabbit IgG hcAbs. Bound antibodies were detected with PE-conjugated anti rabbit IgG secondary antibody.
(§1) • 5.1 Untransfected HEK293 cells and HEK293 cells stably transfected with human or mouse CD73 were incubated for 30 min with HEK-6E cell supernatants containing rabbit IgG hcAbs (diluted 1:10 in PBS/0.1% BSA). Following washing with PBS/0.1% BSA, bound antibodies were detected with PE-conjugated goat anti-rabbit IgG polyclonal antibody (711-116-152 Dianova, Hamburg). • 5.2 For dissociation analyses, two separate aliquots of CD73-transfected cells were incubated either with Cell Proliferation Dye eFluor 450 (eBioscience) or with hcAbs for 20 min at RT. Cells were washed four times, mixed at a 1:1 ratio and further incubated at RT for 120 min before staining of bound antibodies with PE-conjugated goat anti-rabbit IgG polyclonal antibody. The dissociation of hcAbs from the target cells and association with the eFluor 450 labeled cells was analyzed by flow cytometry using the FlowJo software (Treestar). • 5.3 For epitope analyses, cells were preincubated with excess human IgG hcAbs (10 μl HEK-6E cell supernatant/100 μl PBS/0.1% BSA) for 30 min at RT before addition of Nb-rabbit IgG hcAbs (1 μl HEK-6E cell supernatant/100 μl PBS/0.1% BSA) and further incubation for 20 min at RT and staining with PE-conjugated anti-rabbit polyclonal antibody (711-116-152 Dianova, Hamburg). Cells were washed and analyzed by flow cytometry on a BD-FACS Canto. Data were analyzed using the FlowJo software (Treestar).
The binding specificities of the purified hcAbs were determined by flow cytometry using HEK cells transiently co-transfected with expression vectors for GFP and either mouse CD73, human CD73 or a control protein (CD39). 1×10^6 cells were incubated with 10 μl of the Nb-rbIgG hcAb containing HEK-6E cell supernatants for 30 min at 4° C. After washing, the cells were incubated with PE-conjugated anti-rabbit IgG polyclonal antibody (711-116-152 Dianova, Hamburg) and washed twice. The cells were resuspended in PBS and analyzed by flow cytometry on FACS Canto or FACS Celesta (BD Biosciences, Heidelberg). Data evaluation was conducted using the software FlowJo (Treestar, Stanford, US).

[2] = biological target: T3, human CD73-transfected HEK cells; experiment: Epitope binning by flow cytometry (human IgG hcAb blocks rabbit IgG hcAb); assay type: binding; settings: epitope assignment on human CD73 from binning
Experimental: as §1
To evaluate the epitopes on the CD73 protein recognized by different VHHs, representative rabbit IgG hcAbs were binned against a set of human IgG hcAbs, and bound hcAbs were detected with a PE-conjugated anti-rabbit IgG secondary antibody. Cells were pre-incubated with excess human IgG hcAbs for […] at RT to block specific epitopes before addition of rabbit IgG hcAbs as detectors and further incubation for 15 min at RT. Cells were washed, and bound antibodies were detected with PE-conjugated anti-rabbit IgG polyclonal antibody. Cells were washed and analyzed by flow cytometry on a BD-FACS Canto. Data were analyzed using the FlowJo software (Treestar). Lack of blockade by a non-binding control human IgG hcAb served as negative control (unblocked), and blockade of binding with the same VHH carrying human IgG hcAb as the rabbit IgG hcAb used for detection served as positive controls for blocking. Values for blocking were determined by comparing the mean fluorescence intensities (MFIs) of PE staining of transfected cells for unblocked vs blocked rabbit hcAbs using the formula: inhibition (%)=100−(MFI (blocked)/MFI MFI(unblocked)*100). The values were rounded to whole percentages.

soluble human CD73 [3] = biological target: T1, soluble human CD73; experiment: AMP hydrolysis by soluble CD73, DPEA-Napht-Azide fluorescence assay; assay type: biochemical; settings: 50 ng CD73, 30 min pre-incubation with 10 μl hcAb supernatant, 1 mM AMP
Experimental: Recombinant human CD73 (50 ng) was pre-incubated for 30 min with hcAbs at RT in 96 well plates before addition of AMP and DPEA-Napht-Azide. Fluorescence signals were detected every 50 seconds for 30 repeats. ARFU values (>10^3/min) were calculated for a 10 min interval during the linear phase (from 5 min to 15 min) using Prism software (Graphpad). A non-specific rabbit IgG hcAb was used as control.
• 4.1 CD73 catalyzes the hydrolysis of AMP to adenosine. This reaction can be monitored by the shift in fluorescence intensity of DPEA-Napht-Azide. This property was used to determine whether hcAbs could interfere with the enzymatic activity of CD73. Soluble recombinant human CD73 (50 ng) was pre-incubated for 30 min with Nbs or hcAbs (10 μl HEK-6E cell supernatant containing 10-100 μg/ml hcAb) at RT in 96 well plates before addition of AMP (Sigma) to a final concentration of 1 mM and of DPEA-Napht-Azide to a final concentration of 50 μM. • 4.2 Fluorescence signals were recorded in white Nunc MicroWell plates (Nunc, 136101) on a Victor III plate reader (Perkin Elmer) (Exicitation filter: F485, Emission Filter: F535; CW-Lamp energy: 40000, counting time: 0.1 s). Data analyses were performed using Prism (Graphpad).
Soluble recombinant human CD73 (50 ng) was pre-incubated for 30 min with CD73-specific hcAbs or an irrelevant control hcAb (10 μl HEK-6E cell supernatant) at RT in 96 well plates before addition of AMP (Sigma) to a final concentration of 1 mM and of DPEA-Napht-Azide to a final concentration of 50 μM. Fluorescence signals were detected every 50 seconds for 30 repeats. Data analyses were performed using Prism (Graphpad).

| Kdis (soluble human CD73 [1]) | specificity (human CD73) | Epitope [2] | effect on hydrolysis of AMP by soluble CD73 (soluble human CD73 [3]) | Molecule |
| --- | --- | --- | --- | --- |
| 0.022 s⁻¹ | h + m | 4 |  | SB121: CD73-specific alpaca VHH clone, family 5, SEQ ID NO:82; tested as rabbit or human IgG hcAb (antibody, left off: a dimerising Fc or GST, tested as rabbit or human IgG hcAb) heavy: QVQLQESGGGLVQAGGSLRLSCAASGSIGSIIAMGWYRQGPGKQRELVARMFTDDGSTNYDDSVKGRFTISRDSAGTTVYLQMNSLKPEDTAVYYCNAQRRWNAYWGPGTQVTVSS |
| 0.00045 s⁻¹ |  | 2 | did not | SB141: CD73-specific alpaca VHH clone, family 2 in Tables 2-3, SEQ ID NO:72; tested as rabbit or human IgG hcAb (antibody, left off: a dimerising Fc or GST, tested as rabbit or human IgG hcAb) heavy: QVQLVESGGGLVQPGGSLRLSCAASGFTFINYHMSWLRQAPGKGLEWVSEIHSRGDITSYTNSVKGRFTISRDNAKNTLYLQMNSLKFDDTAVYYCARSRDLFNEGEYDYWGRGTQVTVSS |
| 0.046 s⁻¹ | h + m |  |  | SB139: CD73-specific alpaca VHH clone, family 6, SEQ ID NO:83; tested as rabbit or human IgG hcAb (antibody, left off: a dimerising Fc or GST, tested as rabbit or human IgG hcAb) heavy: QVQLQESGGGLVQAGGSLRLSCAASENIFNIYGMGWYRQAPGKLRDLVAKITSGGRTTYADSVKGRFTISGDNAKNTVYLQMNSLKPEDTAVYYCNSYYYWGQGTQVTVSS |
